Test results published in PMC10307625, “Inhibiting membrane rupture with NINJ1 antibodies limits tissue injury” (Nature, 2023).

Biological target: the molecule itself
Experiment: SEC; purified Flag–NINJ1 alone on Superose 6 Increase 10/300 GL; 20 mM HEPES pH 7.5, 150 mM NaCl, 0.005% LMNG, 0.0005% CHS; peak at 8.5 ml retention volume

B1: N-terminally Flag-tagged mouse NINJ1 (natural protein, UniProt O70131 1-152, looked up)
chain: MESGTEEYELNGDLRPGSPGSPDALPPRWGLRNRPINVNHYANKKSAAESMLDIALLMANASQLKAVVEQGNDFAFFVPLVVLISISLVLQIGVGVLLIFLVKYDLNNPAKHAKLDFLNNLATGLVFIIVVVNIFITAFGVQKPVMDVAPRQ
notes: NINJ1 (ninjurin-1), mouse, expressed from pRK-Flag-mNINJ1; Membrane protein solubilised in 1% LMNG / 0.1% CHS; the oligomer size is heterogeneous and no copy number is told; also called Flag–NINJ1; recombinant NINJ1; source: Expi293F cells, transiently transfected, purified (anti-Flag M2 resin, Superose 6 SEC) in LMNG/CHS; not shown: FLAG, N-terminal, kept
- binding result: binds
